Assay [1] addresses T1, recombinant human 4-1BB (Sino Biological Inc., catalog number 10041-H08H) (human, UniProt Q07011 24-186).
T1 construct: Bought protein coated on ELISA plates; treated as the same molecule; also called recombinant human 4-1BB-His protein; CD137
The experiment in a line: ELISA, coated recombinant human 4-1BB, steps of Example 4. Background: In an ELISA, binding on a coated surface is turned into a signal by an enzyme label.

Assay [2] concerns the target T2, recombinant human BTLA (human, UniProt Q7Z6A9 31-157, limits assumed).
T2 construct: also called CD28 family member
The experiment in a line: ELISA, coated antigen 1 µg/mL.

The target of assay [3] is T3, recombinant human PD-L2 (human, UniProt Q9BQ51 20-220).
T3 construct: also called B7 family member
T3 sequence (looked up): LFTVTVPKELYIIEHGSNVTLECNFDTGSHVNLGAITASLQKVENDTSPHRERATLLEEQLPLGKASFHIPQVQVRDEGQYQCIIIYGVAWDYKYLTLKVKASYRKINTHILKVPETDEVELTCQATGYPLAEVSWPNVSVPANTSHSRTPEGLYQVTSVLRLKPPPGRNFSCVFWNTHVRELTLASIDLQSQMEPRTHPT
The experiment in a line: ELISA, coated antigen 1 µg/mL.

Assay [4] has as its target recombinant human TIM-3 (human, UniProt Q8TDQ0 22-200). The assay is described as follows: ELISA, coated antigen 1 µg/mL.
In assay [5] the target is T4, recombinant human CD28 (human, UniProt P10747 19-152).
T4 construct: also called CD28 family member
The experiment in a line: ELISA, coated antigen 1 µg/mL.

For assay [6], the target named is recombinant human CD27 (human, UniProt P26842 20-192). The assay is described as follows: ELISA, coated antigen 1 µg/mL.
The target in assay [7] is T5, recombinant human PDI (human, UniProt Q15116 25-167).
T5 construct: also called PD1 (printed 'PDI'); CD28 family member
The experiment in a line: ELISA, coated antigen 1 µg/mL.

The target of assay [8] is T6, recombinant human ICOS (human, UniProt Q9Y6W8 21-141).
T6 construct: also called CD28 family member
T6 sequence (looked up): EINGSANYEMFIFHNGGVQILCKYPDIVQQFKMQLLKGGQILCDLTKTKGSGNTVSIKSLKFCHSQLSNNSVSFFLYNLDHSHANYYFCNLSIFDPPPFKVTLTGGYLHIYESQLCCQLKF
The assay is described as follows: ELISA, coated antigen 1 µg/mL.

Assay [9] concerns the target T7, recombinant human B7-H2 (human, UniProt O75144 19-256, limits assumed).
T7 construct: also called B7 family member
T7 sequence (looked up): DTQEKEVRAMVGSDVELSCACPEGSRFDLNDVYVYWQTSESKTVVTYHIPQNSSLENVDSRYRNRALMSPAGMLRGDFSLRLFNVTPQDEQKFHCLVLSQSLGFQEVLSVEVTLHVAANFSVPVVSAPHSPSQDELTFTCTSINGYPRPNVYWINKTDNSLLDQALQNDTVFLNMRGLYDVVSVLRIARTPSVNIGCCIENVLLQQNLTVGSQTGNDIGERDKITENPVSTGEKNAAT
The experiment in a line: ELISA, coated antigen 1 µg/mL.

The target of assay [10] is T8, recombinant mouse 4-1BB (mouse, UniProt P20334 24-187).
T8 construct: Bought protein, coated on ELISA plate
T8 sequence (looked up): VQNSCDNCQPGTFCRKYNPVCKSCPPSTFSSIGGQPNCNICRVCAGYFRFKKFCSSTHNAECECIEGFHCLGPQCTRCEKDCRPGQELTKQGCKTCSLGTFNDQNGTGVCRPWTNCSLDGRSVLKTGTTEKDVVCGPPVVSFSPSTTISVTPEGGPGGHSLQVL
The experiment in a line: ELISA, coated antigen 1 µg/mL.

The target of assay [11] is T9, recombinant human CD86 (human, UniProt P42081 24-245, limits assumed).
T9 construct: also called B7 family member
T9 sequence (looked up): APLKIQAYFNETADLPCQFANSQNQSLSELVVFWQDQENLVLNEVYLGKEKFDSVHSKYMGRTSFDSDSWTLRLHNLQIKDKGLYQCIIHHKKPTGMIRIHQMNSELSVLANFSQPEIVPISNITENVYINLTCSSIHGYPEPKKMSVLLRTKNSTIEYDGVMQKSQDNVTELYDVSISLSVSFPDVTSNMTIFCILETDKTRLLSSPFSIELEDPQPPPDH
The assay is described as follows: ELISA, coated antigen 1 µg/mL.

In assay [12] the target is T10, recombinant human CD80 (human, UniProt P33681 35-242).
T10 construct: also called B7 family member
T10 sequence (looked up): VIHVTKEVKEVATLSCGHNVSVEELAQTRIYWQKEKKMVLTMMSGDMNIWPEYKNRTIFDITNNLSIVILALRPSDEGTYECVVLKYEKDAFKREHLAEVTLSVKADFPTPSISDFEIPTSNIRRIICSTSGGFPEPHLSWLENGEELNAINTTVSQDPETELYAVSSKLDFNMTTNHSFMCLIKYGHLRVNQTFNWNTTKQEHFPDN
The experiment in a line: ELISA, coated antigen 1 µg/mL.

Assay [13] concerns the target T11, recombinant human LAG-3 (human, UniProt P18627 23-450).
T11 sequence (looked up): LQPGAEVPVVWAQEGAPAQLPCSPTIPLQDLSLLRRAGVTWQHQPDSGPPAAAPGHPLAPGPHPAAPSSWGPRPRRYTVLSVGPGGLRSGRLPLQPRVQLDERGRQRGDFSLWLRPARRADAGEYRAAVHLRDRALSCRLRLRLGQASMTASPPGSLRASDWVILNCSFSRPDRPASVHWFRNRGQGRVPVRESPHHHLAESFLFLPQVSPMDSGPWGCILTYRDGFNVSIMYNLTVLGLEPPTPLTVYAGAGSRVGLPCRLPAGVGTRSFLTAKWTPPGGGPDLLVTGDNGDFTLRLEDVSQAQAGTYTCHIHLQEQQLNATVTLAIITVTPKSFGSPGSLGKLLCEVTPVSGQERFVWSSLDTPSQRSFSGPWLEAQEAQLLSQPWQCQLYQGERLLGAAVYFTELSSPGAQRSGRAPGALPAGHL
The assay is described as follows: ELISA, coated antigen 1 µg/mL.

For assay [14], the target named is T12, recombinant human OX40 (human, UniProt P43489 29-216).
T12 sequence (looked up): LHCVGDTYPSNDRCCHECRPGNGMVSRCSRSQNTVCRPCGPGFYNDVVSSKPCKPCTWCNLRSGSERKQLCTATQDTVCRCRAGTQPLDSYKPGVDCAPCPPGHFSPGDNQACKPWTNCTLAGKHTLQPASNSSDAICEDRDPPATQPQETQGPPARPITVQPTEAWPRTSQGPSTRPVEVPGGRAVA
The assay is described as follows: ELISA, coated antigen 1 µg/mL.

The target of assay [15] is recombinant human CTLA4 (human, UniProt P16410 36-162). The assay is described as follows: ELISA, coated antigen 1 µg/mL.

Two molecules from patent publication US20250277044A1 (BEIJING HANMI PHARMACEUTICAL, published 2025) can be followed below.

Sequence of recombinant human CD27 (P26842 20-192 limits assumed): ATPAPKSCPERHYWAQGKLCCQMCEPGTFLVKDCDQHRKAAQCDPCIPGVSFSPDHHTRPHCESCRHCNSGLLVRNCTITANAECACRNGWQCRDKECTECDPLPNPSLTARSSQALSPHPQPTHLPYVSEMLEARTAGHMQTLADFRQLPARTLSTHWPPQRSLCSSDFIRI
T5 sequence (Q15116 25-167 limits assumed): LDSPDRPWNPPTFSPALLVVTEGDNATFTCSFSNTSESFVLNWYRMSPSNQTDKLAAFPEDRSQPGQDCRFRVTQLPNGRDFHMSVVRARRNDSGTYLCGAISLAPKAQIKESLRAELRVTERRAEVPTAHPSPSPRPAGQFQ
Sequence of recombinant human CTLA4 (P16410 36-162 limits assumed): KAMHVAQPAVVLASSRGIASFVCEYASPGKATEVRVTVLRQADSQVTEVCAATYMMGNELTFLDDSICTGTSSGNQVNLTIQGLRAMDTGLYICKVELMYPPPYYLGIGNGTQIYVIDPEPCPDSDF
T1 sequence (Q07011 24-186 limits assumed): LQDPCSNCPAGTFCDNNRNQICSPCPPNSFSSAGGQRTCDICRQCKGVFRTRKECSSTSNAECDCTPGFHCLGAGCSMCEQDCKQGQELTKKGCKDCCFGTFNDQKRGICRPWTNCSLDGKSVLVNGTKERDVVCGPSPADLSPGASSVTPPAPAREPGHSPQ

B1: humanized anti-human 4-1BB monoclonal antibody BH3145b (antibody, human IgG4 S228P, kappa, V domains shown)
VH: QVQLVQSGAEVKKPGSSVKVSCKASGYTFTSYWINWVRQAPGQGLEWMGNIYPSDSYTNYNQKFKDRVTITADKSTSTAYMELSSLRSEDTAVYYCARLYYGSSPFDYWGQGTTVTVSS
VL: DIQMTQSPSSLSASVGDRVTITCRASQDISNYLNWYQQKPGKVPKLLIYHTSRLHSGVPSRFSGSGSGTDFTLTISSLQPEDVATYYCQQGHTLPRTFGGGTKVEIKR
notes: also called z0
B1: the binding result in assay [1] is recorded as “binds”.

B2: chimeric anti-human 4-1BB monoclonal antibody mAb-33-83 (antibody, human IgG4 S228P, kappa, V domains shown)
VH: QVQLQQPGAELVRPGASMKLSCKASGYTFTSYWINWVKQRPGQGLEWIGNIYPSDSYTNYNQKFKDKATLTVDKSSSTAYMQLSSPTSEDSAVYYCTRLYYGSSPFDYWGQGTTLTVSS
VL: DIQMTQTTSSLSASLGDRVTISCRASQDISNYLNWYQQKPDGTVKLLIYHTSRLHSGVPPRFSGSGSGTNYSLTISNLEQEDIATYFCQQGHTLPRTFGGGTKLEIKR
notes: expressed in ExpiCHO cells; also called Chimeric mAbs
In the case of B2, the binding result in assay [2], in assay [3], in assay [4], in assay [5], in assay [6] and in assay [7] was “no binding” each time. The binding result in [8], in [9], in assay [10], in assay [11], in [12] and in [13] was “no binding” each time. Moreover, the binding result in assay [14] and in assay [15] was “no binding” each time.
